Experimental data reported in article PMC6739322, “The molecular basis of chaperone-mediated interleukin 23 assembly control” (Nature Communications, 2019).

Biological target: T1, IL-12β (purified alone) (human, UniProt P29460 23-328)
T1 construct: interleukin-12 subunit beta (IL-12β), human; The C-terminal His-tag has a TEV cleavage site and is separated by a GS linker, so residues may be left after cleavage; also called unlabeled IL-12β; source: ExpiCHO, transiently transfected, purified from supernatant (HisTrap, TEV, SEC); not shown: His-tag, C-terminal, cleaved
T1 sequence (looked up): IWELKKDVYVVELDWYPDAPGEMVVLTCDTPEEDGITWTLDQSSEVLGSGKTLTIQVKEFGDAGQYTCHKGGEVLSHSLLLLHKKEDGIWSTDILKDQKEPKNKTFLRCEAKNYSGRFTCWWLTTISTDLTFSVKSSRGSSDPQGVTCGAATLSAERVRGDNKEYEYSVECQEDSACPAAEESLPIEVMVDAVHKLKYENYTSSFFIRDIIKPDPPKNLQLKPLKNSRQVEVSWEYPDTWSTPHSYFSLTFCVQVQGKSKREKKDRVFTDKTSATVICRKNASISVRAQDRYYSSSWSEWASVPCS
Experiment: NMR titration; 1H,15N HSQC of 15N-labelled IL-23α^VVS (100 μM) without and with a two-fold molar excess of unlabeled IL-12β; 10 mM KPi pH 7.5, 298 K
Settings: both partners purified

binding result: binds
B1: IL-23α^C14,22V,C54S (purified) (natural protein, human)
chain: RAVPGGSSPAWTQVQQLSQKLVTLAWSAHPLVGHMDLREEGDEETTNDVPHIQSGDGCDPQGLRDNSQFCLQRIHQGLIFYEKLLGSDIFTGEPSLLPDSPVGQLHASLLGLSQLLQPEGHHWETQQIPSLSPSQPWQRLLLRFKILRSLQAFVAVAARVFAHGAATLSP
notes: interleukin-23 subunit alpha (IL-23α), human; The His-tag has a TEV site and is separated by a 2x GS linker, so residues may be left after cleavage; The protein was 15N-labelled for NMR; The internal disulfide C58-C70 is formed; also called IL-23α^VVS; not shown: His-tag, N-terminal, cleaved
